Reference: patent publication US20240132619A1

Experiments:
[1] = target: human serum albumin (HSA) (human) (UniProt P02768); test: ELISA, HSA coated on plate, n = 3
[2] = target: mouse serum albumin (MSA) (mouse) (UniProt P07724); test: ELISA, MSA coated on plate, n = 3
Sequence of UniProt P07724 (P07724 25-608 limits assumed): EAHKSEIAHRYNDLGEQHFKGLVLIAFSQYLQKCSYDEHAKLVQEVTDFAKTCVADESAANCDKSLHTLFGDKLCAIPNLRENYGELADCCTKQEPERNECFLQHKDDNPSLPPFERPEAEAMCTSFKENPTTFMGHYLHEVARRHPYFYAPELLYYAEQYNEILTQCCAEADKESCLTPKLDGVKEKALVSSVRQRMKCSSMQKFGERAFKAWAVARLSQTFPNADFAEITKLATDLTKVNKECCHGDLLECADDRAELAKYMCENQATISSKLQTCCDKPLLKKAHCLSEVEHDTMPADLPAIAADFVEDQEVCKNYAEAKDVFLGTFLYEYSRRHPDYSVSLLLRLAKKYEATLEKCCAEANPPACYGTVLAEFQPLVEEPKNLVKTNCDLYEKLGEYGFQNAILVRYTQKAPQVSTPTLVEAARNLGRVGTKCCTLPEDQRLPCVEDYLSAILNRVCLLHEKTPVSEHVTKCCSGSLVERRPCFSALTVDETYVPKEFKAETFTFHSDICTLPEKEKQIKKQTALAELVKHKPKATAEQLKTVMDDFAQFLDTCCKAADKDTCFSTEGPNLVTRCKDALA

Sequence of UniProt P02768 (P02768 25-609 limits assumed): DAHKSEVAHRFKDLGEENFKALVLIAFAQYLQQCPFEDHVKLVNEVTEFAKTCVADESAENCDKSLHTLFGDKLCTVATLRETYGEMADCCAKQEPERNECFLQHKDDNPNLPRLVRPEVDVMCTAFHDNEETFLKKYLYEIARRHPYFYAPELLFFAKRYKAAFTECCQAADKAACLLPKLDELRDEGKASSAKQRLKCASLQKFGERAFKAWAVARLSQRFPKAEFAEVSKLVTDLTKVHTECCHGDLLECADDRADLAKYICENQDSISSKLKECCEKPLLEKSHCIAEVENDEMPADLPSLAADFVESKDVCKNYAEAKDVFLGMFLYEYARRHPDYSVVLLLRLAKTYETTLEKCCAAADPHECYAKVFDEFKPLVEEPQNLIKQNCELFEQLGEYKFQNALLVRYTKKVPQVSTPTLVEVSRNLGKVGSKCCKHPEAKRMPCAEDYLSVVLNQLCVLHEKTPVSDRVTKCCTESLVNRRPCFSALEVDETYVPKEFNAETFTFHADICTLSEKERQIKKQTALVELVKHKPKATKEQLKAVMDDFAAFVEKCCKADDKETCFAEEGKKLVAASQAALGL

SS1-ABD-dsFv-PE38 (LMB-209)
Affinity [1]: 0.11 nM | Affinity [2]: 0.16 nM
